Data: PMC5532383

Molecular target: PPI peptide (…) in complex with pMHC-CD8wt monomer (HLA-A02:01)
Experiment: micropipette adhesion frequency assay; biotinylated pMHC monomers on streptavidin-coated biotinylated RBCs brought into contact with single CTL clones; adhesion frequency against contact time, equilibrium at 4 s; 2D affinity AcKa in μm^4; room temperature (main figures) and 37°C (supplement)

- 2D affinity (AcKa): 1e-06 μm^4
Substance: CD8 co-receptor on human HCV-specific CTL clones (from UniProt P01732 22-235; P10966 22-210)
